Data taken from patent publication US20240150494A1.
Residue numbers refer to the chain shown, from its start. Each block holds one binder with its values, some of them ahead of it.

Legend:
[1] = molecular target: G2-Rituximab (galactosylated afucosylated glycoform of rituximab) (human); assay: SPR, 1:1 Langmuir global kinetic fit, 1024 to 32 nM in 2-fold steps
[2] = molecular target: G2-Rituximab (galactosylated afucosylated glycoform of rituximab) (human); assay: SPR (Biacore T200), 1:1 Langmuir fit
[3] = molecular target: G2F-Rituximab (galactosylated fucosylated glycoform of rituximab) (human); assay: SPR (Biacore T200), 1:1 Langmuir fit
[4] = molecular target: G2-Rituximab (galactosylated afucosylated glycoform of rituximab) (human); assay: flow cytometry of yeast displaying C11, stained with IgG1 G2 (Alexa647) and IgG1 G2F (FITC)
[5] = molecular target: G2-Rituximab (galactosylated afucosylated glycoform of rituximab) (human); assay: SPR; drawn table, KD (G2)

B1: D3 (VHH, not shown: small tags and cut ends)
VHH: QVQLQESGGGLVQAGGSLRLSCAASGNISADRYMGWYRQAPGKEREFVAAIGYGGTTYYADSVKGRFTISRDNAKNTVYLQMNSLKPEDTAVYYCAVVDGAHSRHRYWGQGTQVTVSS
Kd [1]: 353 nM
Kd [2]: 0.323 µM
Kd [3]: 1900 nM

B3: E2 (VHH, not shown: small tags and cut ends)
VHH: QVQLQESGGGLVQAGGSLRLSCAASSYISRYHTMGWYRQAPGKERSFVAGITWGGLTYYADSVKGRFTVSRDNAKNTVYLQMNSLKPEDTAVYYCAVDGGTRADPYHYYWGQGTQVTVSS
Kd [5]: 4.74 µM

Other lines, results leading:

number printed in the lower right quadrant (IgG1 G2 Alexa647 positive, IgG1 G2F FITC negative) [4]: 4
Kd [2]: 22.8 µM
B2: C11 (VHH, not shown: small tags and cut ends)
VHH: B3 VHH with S26G, S46E, L56S, V69I, R102Y

Kd [5]: 2.48 µM
B4: E4 (VHH, not shown: small tags and cut ends)
VHH: B3 VHH with S26P, S46E, G50A, L56S, V69I, R102Y
